In patent US20250382602:
Positions count from the first letter of the chain named.

Columns and labels:
[1] = biological target: T1, Dda 1993 K177V K177V (Enterobacteria phage T4) (UniProt P32270); conditions: nanopore translocation; background mutations not given
T1 sequence: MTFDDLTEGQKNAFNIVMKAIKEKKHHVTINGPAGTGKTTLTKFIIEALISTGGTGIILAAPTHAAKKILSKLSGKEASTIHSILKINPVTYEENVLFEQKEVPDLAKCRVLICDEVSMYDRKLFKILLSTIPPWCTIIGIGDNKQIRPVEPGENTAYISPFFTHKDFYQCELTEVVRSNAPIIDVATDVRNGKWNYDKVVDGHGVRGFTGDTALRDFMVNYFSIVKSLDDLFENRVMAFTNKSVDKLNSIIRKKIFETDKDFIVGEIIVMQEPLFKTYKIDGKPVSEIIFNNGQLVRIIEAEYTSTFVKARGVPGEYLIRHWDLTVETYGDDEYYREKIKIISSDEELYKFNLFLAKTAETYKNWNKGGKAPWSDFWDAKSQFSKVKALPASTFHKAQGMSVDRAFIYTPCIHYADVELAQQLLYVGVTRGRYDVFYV

[2] = biological target: T2, Dda 1993 K177H K177H (Enterobacteria phage T4) (UniProt P32270); conditions: nanopore translocation; background mutations not given
T2 sequence: T1 sequence with V177H

[3] = biological target: T3, Dda 1993 K177D K177D (Enterobacteria phage T4) (UniProt P32270); conditions: nanopore translocation; control is an unspecified Dda variant, background mutations not given
T3 sequence: T1 sequence with V177D

[4] = biological target: T4, Dda 1993 K177G K177G (Enterobacteria phage T4) (UniProt P32270); conditions: nanopore translocation; background mutations not given
T4 sequence: T1 sequence with V177G

[5] = biological target: T5, Dda 1993 361Q 361Q (Enterobacteria phage T4) (UniProt P32270); conditions: nanopore translocation, FLO-MIN112; background mutations not given
T5 sequence: T1 sequence with V177K, E361Q

[6] = biological target: T6, Dda 1993 K358A K358A (Enterobacteria phage T4) (UniProt P32270); conditions: nanopore translocation, FLO-MIN112; background mutations not given
T6 sequence: T1 sequence with V177K, K358A

Q: Which results are given for “barcoded 3.6 kb DNA analyte ligated to sequencing Y adaptor”?
A: activity (bps speed delta vs control) [1]: -16; activity (bps speed delta vs control) [2]: 10.6; activity (bps speed delta vs control) [3]: 3.07; activity (bps speed delta vs control) [4]: -27.6; activity (bps speed delta vs control) [5]: 13.8; activity (bps speed delta vs control) [6]: -0.99
